The text below walks through data of the nanobody polyreactivity screen of Harvey et al. (2022).

This data set can be described thus: yeast display, Sf9 membrane polyspecificity reagent, FACS + sequencing; frameworks hold sequencing errors. The method in brief: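 Synthetic nanobody libraries on Saccharomyces cerevisiae BJ5465 were galactose-induced for 36–48 hours, stained 1 hour at 4 °C with 10% biotinylated, detergent-solubilized Sf9 membrane reagent and enriched on streptavidin microbeads. FACS then separated cells into low and high (top ~1%) gates by anti-HA (expression) and streptavidin (reagent binding) fluorescence. Genes were colony-PCR amplified, MiSeq 2 × 250 sequenced and CDR-length filtered. A clone's polyreactivity label is that of its gate of origin.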
Consider “QVQLVESGGGLVQAGGSLRLSCAASGIIFAWNVRGWYRQAPGKERELVAAITQSGGGTYYADSVKGRFTISRDNAKNTVYLLMYSLKPEDTGFYYCAAVGYQFYRYVWVDEFDSWGQGTQVTVSS”, for which the “polyreactivity (PSR sort gate)” value was “low polyreactivity”.

Take “QVQLVESGGGLVQAGGSLRLSCAASGYIFWSNTMGWYRQAPGKERELVAAISQSTASTYYADSVKGRFTISRDNAKNTVYLQMNSLKPEDTAVYYCAADDYIDGDDYWGQGTQVTVSS”: the “polyreactivity (PSR sort gate)” value is “low polyreactivity”. Consider “QVQLVESAGGLVQAGGSLRLSCAASGLIFARNSMGWYRQAPGKERELVAAISKRGGSTFYADSVKGRFTISRDNAKNTVYLQMNSLKPVDTAVYYWNARSSETWHGDYWGQGTQVTVSS”, for which the “polyreactivity (PSR sort gate)” value is given as “high polyreactivity”. As to “QVQLVESGGCLVQAGGSLRLSCAASGSTFENYAMGWYRPAPGKERELVATISIDGRTNYADSVKGRFTISRDNAKNTVFLQMNSLKPEDTGVYYCAARPYWRHRYDYWGQGTQVTVSS”, the “polyreactivity (PSR sort gate)” value was “low polyreactivity”. With “QVQLVESGGGLVQAGGSLRLSCAASGFIIIGYVMGWYRQAPGKERELVAAITSSGGSTYYADSVKGRFTISRDHAKNTVYLQMNSLKPEDTAVYYCAAEYYLLWSGMEYWGQGTQVTVSS”, the “polyreactivity (PSR sort gate)” value is given as “low polyreactivity”. Regarding “QVQLVESGGGLVQAGGSLRLSCDASGFIFVRYAMGWYRQAPGKEREFVAAISRSGGSTYYADSVKGRFTISRDNAKNTVYLQMNSLKPEDTAVYYCARQYASPRREFEYWGQGTQVTVSS”, the “polyreactivity (PSR sort gate)” value was “high polyreactivity”. As to “QVQLVESGGGLVQAGGSLRLSCAASGFTFWWYAMGWYRQAPGKERELVAAISSGGSTNYADSVKGRFTISRDNAKNTVYLQMNSLKPEDTAVYYCNKDYYGSPSSYYGYDYWGQGTQVTESS”, the “polyreactivity (PSR sort gate)” value is recorded as “high polyreactivity”. As for “QVQLVESGGGLVQAGGSLRLSCAASGFTFPGYAMGWYRQAPGKERKLVAAITGSGGRTYYADSVKGRFTISRDNAKNTVYLQMNSLKPEDTAVYYCLARSYYNWYDYWGQGTQVTVSS”, the “polyreactivity (PSR sort gate)” value is “high polyreactivity”. With “QVQLVESGGGLVQAGGSLRLSCAASGRTFWTYTMGWYRQAPGKERELVAAISYSGSRTYYADSVKGRFTISRDNAKNTVYLQMNSQKPEETAVYYWATDDSDYLYRTVSAWEYDYWGQGTQVTVSS”, the “polyreactivity (PSR sort gate)” value is recorded as “low polyreactivity”. “QVQLVESGVCLVQSGGSLRLICAASGRIITPYTMGWYRQAPGKERELVATITWSGGSTYYADSVKGRFTISRDNSKNTVYLQMNSLKPEDTAVYYCAARQIYVWAEYDYWGQGTQVTVSS”: the “polyreactivity (PSR sort gate)” value is recorded as “low polyreactivity”. As for “QVQLVESGGGLVQAGGTLRLSCAASGSTFAANAMGCSRQAPGKERELVAGISESGDRTYADSVKGRFTISRDNAKNTVYLQMNSQKPEETAVYYCNVGANVYLLYFPSRGGVYDYGYWGHGTQVTVSS”, the entry is “low polyreactivity”. As for “QVQLVESGGGLVQAGGSLRLSCAASGSIFGYYTMGWYRQAPGKERELVAGITSTGNTNYADSVKGRFTISRDNAKNTVYLQMNSLKPEDTAVYYCAADSESTWDYGWELEVGYDYWGQGTQVTVSS”, the entry is “low polyreactivity”; as for “QVQLVESGGGLVQAGGSLRLSCAASGSTFGYNAMGWYRQAPGKERELVAAITWTGASTYYADSVKGRFTISRDIAKNTVYLQMNSLKPEDTAVYYCNRVGYQSMNYWGQGTQVTVSS”, “low polyreactivity”; as for “QVQLLESGGGLVQAGGSLRLSCAASGIIVSYAMGWYRQAPGKERELVAAIRYSGDSTYYADSVKGRFTISRDNAKNTVYLQMNSLKPEDTAVYYCAATKGWSRYEYWGQGTQVTVSS”, “low polyreactivity”.

As for “QLQLVESGRGLVQAGGSLRLSCAASGRTFYGYDMGWYRPAPGKERELVATISSGGSTNYADSVKGRFTISRDNAKNTVYLQMNSLKPEDTAVYYCNADSYEYPSPYRYYYLGYDYWGQGTQVTVSS”, the “polyreactivity (PSR sort gate)” value is listed as “low polyreactivity”. “QVQLVESGGGLVQAGGSLRLSCAASGRTFVDNGMGWYRQAPGKERELVAAITYSGGGTYYADSVKGRFTISRDNAKNTVYLQMNSLKPEDTAVYYCNAELGPVDYYGGVTPEYDYWGQGTQVTVSS”: the “polyreactivity (PSR sort gate)” value is “low polyreactivity”.
